Test results from article PMC4268158 (Nature, 2014).
Changes are numbered by the printed parent chain. Where “and” joins values, the source holds several entries; their conditions need not be identical. Identical values can stand only once.

What was measured:
[1] = biological target: T1, CsgE-his (pNH27) (Escherichia coli), P0AE95; test: cryo-EM class averages; conditions: remark: other sources report otherwise
T1 chain: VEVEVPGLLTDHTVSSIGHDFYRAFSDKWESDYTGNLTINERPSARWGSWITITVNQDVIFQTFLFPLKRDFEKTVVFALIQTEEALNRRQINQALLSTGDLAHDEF

[2] = biological target: T1, CsgE-his (pNH27) (Escherichia coli), …; test: cryo-EM structure; conditions: remark: other sources report otherwise
[3] = biological target: T1, CsgE-his (pNH27) (Escherichia coli), …; test: SEC; conditions: remark: other sources report otherwise
[4] = biological target: T1, CsgE-his (pNH27) (Escherichia coli), …; test: negative-stain EM; conditions: remark: other sources report otherwise
[5] = biological target: the molecule itself; test: SEC + other: negative-stain EM
[6] = biological target: the molecule itself; test: SEC + other: negative-stain EM; remark: listed apart in the source
[7] = biological target: the molecule itself; test: cryo-EM structure

B1: CsgE-his (pNH27), P0AE95 23-129 (natural protein)
chain: T1 chain
With B1 the stoichiometry N [1] was 9, the stoichiometry N [2] was 9 and the stoichiometry N [3] was 9.16. It also gave a stoichiometry N [4] of 9.

B2: CsgGC1S, non-lipidated soluble periplasmic form, C-terminally StrepII-tagged (pPG2) (natural protein, Escherichia coli, UniProt P0AEA2 16-277, looked up)
chain: SLTAPPKEAARPTLMPRAQSYKDLTHLPAPTGKIFVSVYNIQDETGQFKPYPASNFSTAVPQSATAMLVTALKDSRWFIPLERQGLQNLLNERKIIRAAQENGTVAINNRIPLQSLTAANIMVEGSIIGYESNVKSGGVGARYFGIGADTQYQLDQIAVNLRVVNVSTGEILSSVNTSKTILSYEVQAGVFRFIDYQRLLEGEVGYTSNEPVMLCLMSAIETGVIFLINDGIDRGLWDLQNKAERQNDILVKYRHMSVPPES
In the case of B2, the “stoichiometry N” value [5] is reported as 16 and 8.

B3: CsgG, native membrane-extracted, C-terminally StrepII-tagged (pPG1) (natural protein, Escherichia coli, UniProt P0AEA2 16-277, looked up)
chain: B2 chain with S1C
modifications: diacylglycerol- and amide-linked acyl chain on the N-terminal Cys (lipid anchor)
For B3, the “stoichiometry N” value [6] was 18 and the “stoichiometry N” value [7] was 9.
